Target: T1, c-Met, the receptor for Hepatocyte Growth Factor (HGF) (human (endogenous in SNU-449 and …, UniProt P08581 25-1390))
T1 construct: precipitated with agarose-conjugated anti-c-Met antibody sc-161 AC; Endogenous receptor in a lysate; the co-IP blot detects total c-Met; also called c-Met Tyrosine Kinase; source: endogenous, Mahlavu whole cell lysate
Assay: co-IP; SNU-449 whole cell lysates (modified NP-40 buffer) precipitated with agarose-conjugated anti-c-Met antibody (sc-161 AC), blotted for CAV1 and c-Met; serum-starved cells untreated or exposed to HGF (40 ng/mL) for 15, 30 and 60 min; IgG as IP control
Details: partners not purified

T1 sequence (P08581 25-1390): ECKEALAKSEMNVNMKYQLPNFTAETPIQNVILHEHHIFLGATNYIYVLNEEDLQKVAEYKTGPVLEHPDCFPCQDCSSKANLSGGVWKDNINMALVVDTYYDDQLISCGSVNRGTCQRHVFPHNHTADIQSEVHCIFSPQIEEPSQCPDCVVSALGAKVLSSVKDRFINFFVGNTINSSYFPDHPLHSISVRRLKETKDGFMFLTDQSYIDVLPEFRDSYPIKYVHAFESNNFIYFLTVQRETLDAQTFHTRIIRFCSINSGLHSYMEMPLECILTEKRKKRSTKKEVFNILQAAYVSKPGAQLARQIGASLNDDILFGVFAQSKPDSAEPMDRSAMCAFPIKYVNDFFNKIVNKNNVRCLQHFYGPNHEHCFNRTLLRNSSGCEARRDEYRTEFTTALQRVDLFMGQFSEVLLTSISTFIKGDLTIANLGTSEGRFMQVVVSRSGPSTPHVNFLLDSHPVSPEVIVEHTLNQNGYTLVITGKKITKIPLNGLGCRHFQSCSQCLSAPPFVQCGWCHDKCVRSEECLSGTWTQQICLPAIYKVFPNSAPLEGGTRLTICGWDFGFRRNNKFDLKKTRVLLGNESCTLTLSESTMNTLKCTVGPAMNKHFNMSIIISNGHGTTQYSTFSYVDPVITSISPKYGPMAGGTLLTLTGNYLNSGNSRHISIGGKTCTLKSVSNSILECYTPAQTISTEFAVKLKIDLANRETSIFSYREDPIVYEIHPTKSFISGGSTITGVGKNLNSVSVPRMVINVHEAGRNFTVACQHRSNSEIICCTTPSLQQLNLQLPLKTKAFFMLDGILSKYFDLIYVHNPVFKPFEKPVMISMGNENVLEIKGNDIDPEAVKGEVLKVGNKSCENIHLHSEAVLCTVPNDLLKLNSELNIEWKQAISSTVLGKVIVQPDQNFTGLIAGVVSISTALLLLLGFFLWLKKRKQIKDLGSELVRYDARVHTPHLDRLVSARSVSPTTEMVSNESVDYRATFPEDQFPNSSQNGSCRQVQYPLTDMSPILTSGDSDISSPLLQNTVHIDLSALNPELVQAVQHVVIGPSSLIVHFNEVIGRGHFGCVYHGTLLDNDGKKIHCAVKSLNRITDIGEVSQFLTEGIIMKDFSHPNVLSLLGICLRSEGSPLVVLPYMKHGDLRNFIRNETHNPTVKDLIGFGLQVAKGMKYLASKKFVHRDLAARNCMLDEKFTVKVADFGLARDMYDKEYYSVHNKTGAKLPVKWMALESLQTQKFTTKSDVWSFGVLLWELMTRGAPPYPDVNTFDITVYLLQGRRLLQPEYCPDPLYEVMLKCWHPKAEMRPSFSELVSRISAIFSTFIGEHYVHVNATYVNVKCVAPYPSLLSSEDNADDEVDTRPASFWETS

B1: Caveolin 1 (CAV1) (natural protein, UniProt Q03135 1-178, looked up)
chain: MSGGKYVDSEGHLYTVPIREQGNIYKPNNKAMADELSEKQVYDAHTKEIDLVNRDPKHLNDDVVKIDFEDVIAEPEGTHSFDGIWKASFTTFTVTKYWFYRLLSALFGIPMALIWGIYFAILSFLHIWAVVPCIKSFLIEIQCISRVYSIYVHTVCDPLFEAVGKIFSNVRINLQKEI
notes: detected by Western blot with an antibody to CAV1; Endogenous protein; the co-IP blot detects total CAV1; source: endogenous, Mahlavu whole cell lysate
Question: Which “fold increase in the amount co-immunoprecipitated upon HGF stimulation, against no HGF” value does the source give for B1 here?
Answer: ≥ 3 fold

From PMC4141763, “Reciprocal Activating Crosstalk between c-Met and Caveolin 1 Promotes Invasive Phenotype in Hepatocellular Carcinoma” (PLoS ONE, 2014)
